The assay concerns the target T1, human EGFR.His antigen (Acro, Cat #EGR-H522a) (human, UniProt P00533 25-645).
T1 construct: extracellular domain; Bought protein; also called EGFR his tag protein; full-length EGFR extracellular domain protein; not shown: His tag
As to the kind of experiment: SPR, human EGFR.His.

A word on the Kd: it is the constant that tells how readily two partners part at equilibrium. Low readings indicate a tighter complex, high ones a looser complex. By koff is commonly meant a measure of how fast the partners let go of each other. Low values mean slow dissociation, high ones fast dissociation. As usually defined, the kon is the rate constant with which the complex forms. Low values mean slower complex formation, high ones faster complex formation.

B1: E002.1 (VHH)
VHH: EVQLVESGGGLVQPGGSLRLSCAASGFTFSDYAVSWYRQAPGKEREFVSRITGTGETSRYEDSVKGRFTISRDNSKNTAYLQMNSLRAEDTAVYYCSIYHPPRDYWGQGTQVTVSS
notes: Humanized VHH; also called humanized variant of E002
B1 came in with a Kd of 5 nM, an off-rate constant (koff) of 0.00039 s⁻¹ and an association rate constant (kon) of 78000 M⁻¹ s⁻¹.

B2: E002.6 (VHH)
VHH: EVQLVESGGGLVQPGGSLRLSCAASGFTFSDYAVSWYRQAPGKEREFVARITGTGETSRYEDSVKGRFAISRDNSKNTAYLQMNSLRAEDTAVYYCSIYHPPRDYWGQGTQVTVSS
notes: as for B1
B2 displayed a Kd of 9.4 nM, an off-rate constant (koff) of 0.00038 s⁻¹ and an association rate constant (kon) of 40000 M⁻¹ s⁻¹.

B3: E002.5 (VHH)
VHH: EVQLVESGGGLVQPGGSLRLSCAASGFTFSDYAVSWYRQAPGKEREFVARITGTGETSRYEDSVKGRFTISRDNVKNTAYLQMNSLRAEDTAVYYCSIYHPPRDYWGQGTQVTVSS
notes: as for B1
For the molecule B3, binding was put at a Kd of 13 nM, the dissociation rate constant (koff) came to 0.00055 s⁻¹ and the kon turned out to be 43000 M⁻¹ s⁻¹.

B4: E002.7 (VHH)
VHH: EVQLVESGGGLVQPGGSLRLSCAASGFTFSDYAVSWYRQAPGKEREFVARITGTGETSRYEDSVKGRFAISRDNVKNTAYLQMNSLRAEDTAVYYCSIYHPPRDYWGQGTQVTVSS
notes: as for B1
B4 gave a Kd of 11 nM, an off-rate (koff) of 0.00046 s⁻¹ and an on-rate (kon) of 40000 M⁻¹ s⁻¹.

B5: E002.2 (VHH)
VHH: EVQLVESGGGLVQPGGSLRLSCAASGFTFSDYAVSWYRQAPGKEREFVSRITGTGETSRYEDSVKGRFTISRDNVKNTAYLQMNSLRAEDTAVYYCSIYHPPRDYWGQGTQVTVSS
notes: as for B1
Consider B5, for which binding was characterised by a dissociation constant (Kd) of 5.1 nM, the off-rate (koff) turned out to be 0.00068 s⁻¹ and the kon came to 130000 M⁻¹ s⁻¹.

B6: E002.4 (VHH)
VHH: EVQLVESGGGLVQPGGSLRLSCAASGFTFSDYAVSWYRQAPGKEREFVARITGTGETSRYEDSVKGRFTISRDNSKNTAYLQMNSLRAEDTAVYYCSIYHPPRDYWGQGTQVTVSS
notes: as for B1
On to B6, for which the dissociation constant (Kd) is 11 nM, the dissociation rate constant (koff) amounted to 0.00045 s⁻¹ and the kon turned out to be 43000 M⁻¹ s⁻¹.

B7: E008.1 (VHH)
VHH: EVQLVESGGGLVQPGGSLRLSCAASGLPLLDYAIGWFRQAPGKEREAVSAISISEGSTYYTDSVRGRFTISRDNSKNTVYLQMNSLRAEDTAVYYCAADKTDIGFWLLVGGAGGGEVRYEYWGQGTQVTVSS
notes: Humanized VHH; also called humanized variant of E008
B7 had a dissociation constant (Kd) of 18 nM, an off-rate (koff) of 0.0087 s⁻¹ and an on-rate (kon) of 480000 M⁻¹ s⁻¹.

B8: E008.9 (VHH)
VHH: EVQLVESGGGLVQPGGSLRLSCAASGLPLLDYAIGWFRQAPGKELEAVSAISISEGSTYYTDSVRGRFTISRDNNKNKVYLQMNSLRAEDTAVYYCAADKTDIGFWLLVGGAGGGEVRYEYWGQGTQVTVSS
notes: as for B7
B8 had a Kd of 25 nM, a dissociation rate constant (koff) of 0.012 s⁻¹ and a kon of 490000 M⁻¹ s⁻¹.

B9: E008.4 (VHH)
VHH: EVQLVESGGGLVQPGGSLRLSCAASGLPLLDYAIGWFRQAPGKEREAVSAISISEGSTYYTDSVRGRFTISRDNNKNTVYLQMNSLRAEDTAVYYCAADKTDIGFWLLVGGAGGGEVRYEYWGQGTQVTVSS
notes: as for B7
On to B9, for which the equilibrium dissociation constant (Kd) came out at 21 nM, the off-rate (koff) was 0.0093 s⁻¹ and the on-rate (kon) stood at 450000 M⁻¹ s⁻¹.

B10: E008.3 (VHH)
VHH: EVQLVESGGGLVQPGGSLRLSCAASGLPLLDYAIGWFRQAPGKEREAVSAISISEGSTYYTDSVRGRFTISRDNSKNTVYLRMNSLRAEDTAVYYCAADKTDIGFWLLVGGAGGGEVRYEYWGQGTQVTVSS
notes: as for B7
B10 showed a dissociation constant (Kd) of 5.8 nM, an off-rate constant (koff) of 0.028 s⁻¹ and an on-rate constant (kon) of 4.9e+06 M⁻¹ s⁻¹.

B11: E008.5 (VHH)
VHH: EVQLVESGGGLVQPGGSLRLSCAASGLPLLDYAIGWFRQAPGKEREAVSAISISEGSTYYTDSVRGRFTISRDNSKNKVYLQMNSLRAEDTAVYYCAADKTDIGFWLLVGGAGGGEVRYEYWGQGTQVTVSS
notes: as for B7
For the molecule B11, the dissociation constant (Kd) was 24 nM, the off-rate (koff) amounted to 0.012 s⁻¹ and the on-rate constant (kon) came to 510000 M⁻¹ s⁻¹.

B12: E008.10 (VHH)
VHH: EVQLVESGGGLVQPGGSLRLSCASSGLPLLDYAIGWFRQAPGKEREAVSAISISEGSTYYTDSVRGRFTISRDNSKNKVYLRMNSLRAEDTAVYYCAADKTDIGFWLLVGGAGGGEVRYEYWGQGTQVTVSS
notes: as for B7
On to B12, for which binding was put at a Kd of 82 nM, the off-rate constant (koff) amounted to 0.029 s⁻¹ and the kon amounted to 360000 M⁻¹ s⁻¹.

B13: E008.2 (VHH)
VHH: EVQLVESGGGLVQPGGSLRLSCAASGLPLLDYAIGWFRQAPGKEREAVSAISISEGSTYYTDSVRGRFTISRDNSKNKLYLQMNSLRAEDTAVYYCAADKTDIGFWLLVGGAGGGEVRYEYWGQGTQVTVSS
notes: as for B7
The molecule B13 displayed a dissociation constant (Kd) of 40 nM, a koff of 0.021 s⁻¹ and an on-rate constant (kon) of 540000 M⁻¹ s⁻¹.

B14: E008.6 (VHH)
VHH: EVQLVESGGGLVQPGGSLRLSCAASGLPLLDYAIGWFRQAPGKEREAVSAISISEGSTYYTDSVRGRFTISRDNNKNKVYLQMNSLRAEDTAVYYCAADKTDIGFWLLVGGAGGGEVRYEYWGQGTQVTVSS
notes: as for B7
With B14, binding was characterised by a dissociation constant (Kd) of 32 nM, the off-rate constant (koff) was 0.013 s⁻¹ and the kon was 430000 M⁻¹ s⁻¹.

B15: E006.1 (VHH)
VHH: EVQLVESGGGLVQPGGSLRLSCAASGFTFDTYTTSWERQAPGKEREMVAVLATTGGKPYYVESVKGRFTISRDNSKNTVYLQMNSLRAEDTAVYYCKATSRSPVNPHNYSGQGTLVTVSS
notes: Humanized VHH; also called humanized variant of E006
On to B15, for which the affinity, expressed as Kd, was 39 nM; the koff worked out at 0.00079 s⁻¹; the on-rate (kon) was 20000 M⁻¹ s⁻¹.

B16: E006.3 (VHH)
VHH: EVQLVESGGGLVQPGGSLRLSCAASGFTFDTYTTSWERQAPGKEREMVAVLATTGGKPYYVESVKGRFTISRDASENTVYLQMNSLRAEDTAVYYCKATSRSPVNPHNYSGQGTLVTVSS
notes: as for B15
As to B16, the dissociation constant (Kd) stood at 18 nM, the off-rate (koff) came out at 0.0004 s⁻¹ and the on-rate constant (kon) was determined as 22000 M⁻¹ s⁻¹.

B17: E006.2 (VHH)
VHH: EVQLVESGGGLVQPGGSLRLSCAASGFTFDTYTTSWERQAPGKEREMVAVLATTGGKPYYVESVKGRFTISRDASKNTVYLQMNSLRAEDTAVYYCKATSRSPVNPHNYSGQGTLVTVSS
notes: as for B15
In the case of B17, binding was characterised by a dissociation constant (Kd) of 41 nM, the off-rate constant (koff) stood at 0.00072 s⁻¹ and the kon was found to be 17000 M⁻¹ s⁻¹.

B18: E006.4 (VHH)
VHH: EVQLVESGGGLVQPGGSLRLSCAASGFTFDTYTTSWERQAPGKEREMVAVLATTGGKPYYVESVKGRFTISRDASENAVYLQMNSLRAEDTAVYYCKATSRSPVNPHNYSGQGTLVTVSS
notes: as for B15
B18 showed a Kd of 13 nM, a koff of 0.00032 s⁻¹ and a kon of 25000 M⁻¹ s⁻¹.

B19: E005.1 (VHH)
VHH: QVQLVESGGGLVKPGGSLRLSCAASGFAFSDYTMRWHRQAAGKELELVSYITSAGDIIKYANSVRGRFTISRDNAKNTLYLQMNSLRAEDTAVYRCNALVSASVRASDYWGQGTLVTVSS
notes: Humanized VHH; also called humanized variant of E005
Consider B19, for which binding was put at a Kd of 3.3 nM, the off-rate constant (koff) worked out at 3.5e-05 s⁻¹ and the kon stood at 11000 M⁻¹ s⁻¹.

B20: E005.2 (VHH)
VHH: QVQLVESGGGLVKPGGSLRLSCAASGFAFSDYTMRWHRQAAGKELELVAYITSAGDIIKYANSVRGRFTISRDNAKNSLYLQMNSLRAEDTAVYRCNALVSASVRASDYWGQGTLVTVSS
notes: as for B19
The molecule B20 gave a dissociation constant (Kd) of 1.2 nM, a koff of 2.1e-05 s⁻¹ and a kon of 18000 M⁻¹ s⁻¹.

B21: E005.6 (VHH)
VHH: QVQLVESGGGLVKPGGSLRLSCAASGFAFSDYTMRWHRQAAGKELELVAYISSAGDIIKYANSVRGRFTISRDNAKNTLYLQMNSLRAEDTAVYRCNALVSASVRASDYWGQGTLVTVSS
notes: as for B19
Consider B21, for which binding was put at a Kd of 2.5 nM, the koff stood at 4.1e-05 s⁻¹ and the on-rate constant (kon) turned out to be 16000 M⁻¹ s⁻¹.

B22: E005.3 (VHH)
VHH: QVQLVESGGGLVKPGGSLRLSCAASGFAFSDYTMRWHRQAAGKELELVAYITSAGDIIKYANSVRGRFTISRDNAKNTLYLQMNSLRAEDTAVYRCNALVSASVRASDYWGQGTLVTVSS
notes: as for B19
B22 gave a Kd of 2.7 nM, an off-rate (koff) of 1.7e-05 s⁻¹ and a kon of 6100 M⁻¹ s⁻¹.

B23: E005.8 (VHH)
VHH: QVQLVESGGGLVKPGGSLRLSCEASGFAFSDYTMRWHRQAAGKELELVAYITSAGDIIKYANSVRGRFTISRDNAKNTLYLQMNSLRAEDTAVYRCNALVSASVRASDYWGQGTLVTVSS
notes: as for B19
B23: the equilibrium dissociation constant (Kd) came to 2.1 nM, the off-rate (koff) amounted to 2.7e-05 s⁻¹ and the kon stood at 13000 M⁻¹ s⁻¹.

B24: E005.5 (VHH)
VHH: QVQLVESGGGLVKPGGSLRLSCAASGFAFSDYTMRWHRQAPGKELELVAYITSAGDIIKYANSVRGRFTISRDNAKNTLYLQMNSLRAEDTAVYRCNALVSASVRASDYWGQGTLVTVSS
notes: as for B19
B24 yielded a dissociation constant (Kd) of 0.74 nM, a koff of 1.1e-05 s⁻¹ and an on-rate constant (kon) of 15000 M⁻¹ s⁻¹.

B25: E005.4 (VHH)
VHH: QVQLVESGGGLVKPGGSLRLSCAASGFAFSDYTMRWHRQAPGKELELVSYITSAGDIIKYANSVRGRFTISRDNAKNSLYLQMNSLRAEDTAVYRCNALVSASVRASDYWGQGTLVTVSS
notes: as for B19
B25 gave a dissociation constant Kd of 4.8 nM, a koff of 9.6e-06 s⁻¹ and an association rate constant (kon) of 2000 M⁻¹ s⁻¹.

B26: E005.7 (VHH)
VHH: QVQLVESGGGLVKPGGSLRLSCAASGFAFSDYTMRWHRQAPGKELELVAYITSAGDIIKYANSVRGRFTISRDNAKNSLYLQMNSLRAEDTAVYRCNALVSASVRASDYWGQGTLVTVSS
notes: as for B19
Take B26: the dissociation constant Kd stood at 0.71 nM, the off-rate constant (koff) stood at 2.5e-06 s⁻¹ and the association rate constant (kon) worked out at 3500 M⁻¹ s⁻¹.

The values above are taken from patent US20250215092A1 (ZHEJIANG NANOMAB TECHNOLOGY CENTER, published 2025).
